Test results reported in PMC11250742, “Preclinical evaluation of CXCR4 peptides for targeted radionuclide therapy in glioblastoma” (EJNMMI Radiopharmacy and Chemistry, 2024).
Where a SMILES comes first, the peptide text is derived from it. Bridges are numbered along the chain shown (N, C = ends). [ ]: non-standard residue; d: D form. The star is where a group is joined. DOTA = O=C(O)CN1CCN(CC(=O)O)CCN(CC(=O)*)CCN(CC(=O)O)CC1; 2Nal = N[C@@H](Cc1ccc2ccccc2c1)C(=O)O; Cit = NC(=O)NCCC[C@H](N)C(=O)O

Key:
[1] = system: U87-CXCR4 + cells; assay: MTS cell viability assay; type: cell-based; settings: 2 h
Procedure: Cell viability assays were performed using increasing activity concentrations of the radiolabelled peptides (1 to 20 MBq/mL), incubated with U87-CXC4 + cells for four hours at 37 °C, 5% CO2. After the incubation period, cells were washed twice with PBS and replenished with complete media. After five and seven days of treatment, the cell media was removed and MTS (3-(4,5-dimethylthiazol-2-yl)-5-(3-carboxymethoxyphenyl)-2-(4-sulfophenyl)-2 H-tetrazolium) reagent added, prepared according to manufacturer’s instructions (CellTiter 96® AQueous One Solution Cell Proliferation Assay, Promega, Wisconsin, United States). To determine the effect of the radiation originating from unbound radiolabelled peptides, cells were treated with equivalent activity concentrations of [^177Lu]Lu-DTPA. Triton X-100 (0.1%) was used as a positive control. Vehicle includes the NaOAc radiolabeling buffer at the concentration used for the 20 MBq/mL peptide solutions. The cells were incubated for 0.5–1 h with the MTS reagent at 37 °C, 5% CO2. Absorbance was measured at 490 nm using a BioTek Synergy H1 plate reader (Agilent Technologies, Mechelen, Belgium). Cell viability was normalised to the vehicle and calculated as percentage of cell viability.

[2] = in vivo; parameters: species or system BALB/c nude mice; settings: mouse; for tissue uptake dose at 4 h / SUV at 4 h: BALB/c nude, iv, total radioactivity; for tissue uptake dose at 4 h: %IA
Procedure: For the generation of the subcutaneous GBM xenograft model, BALB/c nude mice (between 8 and 12 weeks old) were anesthetised with 2.5% isoflurane in O2 at a flow rate of 0.2 L/min and subcutaneously injected on the right shoulder with 3 × 10^6 U87-CXCR4 + cells resuspended in a 1:1 mixture of PBS and Cultrex BME (R&D Systems, Bio-Techne, Minnesota, US). Tumours were left to grow for ten days before the start of the experiment. Tumour volumes were calculated as length × width × height. Three days before the experiment, the mean tumour volumes of all mice were 255 ± 119 mm^3.
All animals were anesthetised with 2.5% isoflurane in O2 at a flow rate of 1 L/min and intravenously (IV) injected with 1.5 MBq of [^177Lu]Lu-POL3026 via a tail vein (radiolabelled with a Am of 53.1 ± 0.55 MBq/nmol). The mice were sacrificed by an overdose of pentobarbital (200 µL of 60 mg/mL) at 1-, 4-, 24- and 168 h post-injection (p.i.) (n = 3–4 per time point), followed by cardiac puncture. Organs of interest were collected in tarred tubes and weighed. The activity in the different organs was measured in the automated gamma counter described above. For the calculation of the total activity in the blood, bone, and muscle, the masses were assumed to be 7, 12 and 40% of the total body mass, respectively. Data is shown as standardised uptake value (SUV), calculated using the following equation:
SUV = [Activity in organ (cpm) / Organ weight (g)] / [(Injected activity (cpm) / Total body weight (g)].
A separate study was performed to evaluate the specificity of the uptake of [^177Lu]Lu-POL3026 in U87-CXCR4 + subcutaneous tumours and the rest of the organs. This was done by creating two groups (n = 4 / group), one group pre-injected intraperitoneally (IP) with 5 mg/kg of AMD11070, 30 min before the IV injection of [^177Lu]Lu-POL3026, while the other group was pre-injected with the DMSO vehicle. Mice from both groups were sacrificed 4 h post-injection and organs were collected as previously described.

[3] = biological target: T1, CXCR4 (Homo sapiens, UniProt P61073); assay: In vitro autoradiography saturation binding on U87-CXCR4 + tumour slices; settings: sections of subcutaneous U87-CXCR4 + tumours; 0.1–1000 nM; NSB with 100 µM AMD11070; N = 3
T1 construct: expressed in transfected cells; host or cells: U87-MG (U87-CXCR4+), kept under blasticidin selection
T1 sequence (P61073 whole entry): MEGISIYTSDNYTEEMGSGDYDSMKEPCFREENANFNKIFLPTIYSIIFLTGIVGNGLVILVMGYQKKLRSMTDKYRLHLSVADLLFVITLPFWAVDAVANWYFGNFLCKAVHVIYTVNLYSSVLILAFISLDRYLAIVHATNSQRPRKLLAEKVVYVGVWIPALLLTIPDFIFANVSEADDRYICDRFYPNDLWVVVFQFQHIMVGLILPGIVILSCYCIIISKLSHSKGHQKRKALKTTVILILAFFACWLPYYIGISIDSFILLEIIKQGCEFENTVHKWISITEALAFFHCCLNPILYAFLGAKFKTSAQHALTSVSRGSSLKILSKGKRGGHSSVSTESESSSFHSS

Question: For `N=C(N)NCCC[C@@H]1NC(=O)[C@@H]2CSSC[C@H](NC(=O)[C@H](Cc3ccc4ccccc4c3)NC(=O)[C@H](CCCNC(=N)N)NC(=O)[C@H](CCCNC(=N)N)NC(=O)[C@H]3CCCN3C(=O)CNC1=O)C(=O)N[C@@H](Cc1ccc(O)cc1)C(=O)N[C@@H](CCC(N)=O)C(=O)N[C@@H](CCCCNC(=O)CN1CCN(CC(=O)O)CCN(CC(=O)O)CCN(CC(=O)O)CC1)C(=O)N1CCC[C@@H]1C(=O)N1CCC[C@H]1C(=O)N[C@@H](Cc1ccc(O)cc1)C(=O)N[C@@H](CCCNC(=N)N)C(=O)N[C@@H](CCCNC(N)=O)C(=O)N2` [[^177Lu]Lu-DOTA-POL3026, metal not drawn] (cyclo(RR[2Nal]CYQK(DOTA)[dP]PYR[Cit]CRG[dP]); disulfide 4-13), which cell viability [1] is on record?
Answer: 52.3 ± 9.9%

Question: And the tissue uptake dose at 4 h ([2]; 5 mg/kg, Blood)?
Answer: 0.33 %ID

Question: And the tissue uptake dose at 4 h ([2]; 5 mg/kg, Blood on tissue paper)?
Answer: 0.97 %ID

Question: And the tissue uptake dose at 4 h ([2]; 5 mg/kg, Bone)?
Answer: 5.16 %ID

Question: And the tissue uptake dose at 4 h ([2]; 5 mg/kg, Brain)?
Answer: 0.01 %ID

Question: And the tissue uptake dose at 4 h ([2]; 5 mg/kg, Carcass)?
Answer: 9.91 %ID

Question: What about the tissue uptake dose at 4 h ([2]; 5 mg/kg, Heart) of the same compound?
Answer: 0.03 %ID

Question: What about the tissue uptake dose at 4 h ([2]; 5 mg/kg, Intestines) of the same compound?
Answer: 1.17 %ID

Question: What about the tissue uptake dose at 4 h ([2]; 5 mg/kg, Kidneys) of the same compound?
Answer: 5.44 %ID

Question: And the tissue uptake dose at 4 h ([2]; 5 mg/kg, Liver)?
Answer: 33.8 %ID

Question: And the tissue uptake dose at 4 h ([2]; 5 mg/kg, Lungs)?
Answer: 0.35 %ID

Question: What about the tissue uptake dose at 4 h ([2]; 5 mg/kg, Muscle) of the same compound?
Answer: 1.02 %ID

Question: And the tissue uptake dose at 4 h ([2]; 5 mg/kg, Pancreas)?
Answer: 0.02 %ID

Question: What about the tissue uptake dose at 4 h ([2]; 5 mg/kg, Spleen) of the same compound?
Answer: 0.51 %ID

Question: What about the tissue uptake dose at 4 h ([2]; 5 mg/kg, Stomach) of the same compound?
Answer: 0.06 %ID

Question: What about the tissue uptake dose at 4 h ([2]; 5 mg/kg, Tail) of the same compound?
Answer: 3.44 %ID

Question: What about the tissue uptake dose at 4 h ([2]; 5 mg/kg, Tumour) of the same compound?
Answer: 1.68 %ID

Question: And the SUV at 4 h ([2]; 5 mg/kg, Blood)?
Answer: 0.05 SUV

Question: What about the SUV at 4 h ([2]; 5 mg/kg, Bone) of the same compound?
Answer: 0.43 SUV

Question: What about the SUV at 4 h ([2]; 5 mg/kg, Heart) of the same compound?
Answer: 0.06 SUV

Question: And the SUV at 4 h ([2]; 5 mg/kg, Kidneys)?
Answer: 3.74 SUV

Question: What about the SUV at 4 h ([2]; 5 mg/kg, Liver) of the same compound?
Answer: 5.76 SUV

Question: And the SUV at 4 h ([2]; 5 mg/kg, Lungs)?
Answer: 0.57 SUV

Question: And the SUV at 4 h ([2]; 5 mg/kg, Muscle)?
Answer: 0.03 SUV

Question: And the SUV at 4 h ([2]; 5 mg/kg, Pancreas)?
Answer: 0.03 SUV

Question: What about the SUV at 4 h ([2]; 5 mg/kg, Spleen) of the same compound?
Answer: 1.41 SUV

Question: What about the SUV at 4 h ([2]; 5 mg/kg, Tumour) of the same compound?
Answer: 1.59 SUV

Question: What about the tissue uptake dose at 4 h ([2]; 1.5 MBq, Blood) of the same compound?
Answer: 2.91 %ID

Question: And the tissue uptake dose at 4 h ([2]; 1.5 MBq, Blood on tissue paper)?
Answer: 1.34 %ID

Question: What about the tissue uptake dose at 4 h ([2]; 1.5 MBq, Bone) of the same compound?
Answer: 6.85 %ID

Question: What about the tissue uptake dose at 4 h ([2]; 1.5 MBq, Brain) of the same compound?
Answer: 0.02 %ID

Question: What about the tissue uptake dose at 4 h ([2]; 1.5 MBq, Carcass) of the same compound?
Answer: 20.3 %ID

Question: And the tissue uptake dose at 4 h ([2]; 1.5 MBq, Heart)?
Answer: 0.16 %ID

Question: And the tissue uptake dose at 4 h ([2]; 1.5 MBq, Intestines)?
Answer: 2.43 %ID

Question: What about the tissue uptake dose at 4 h ([2]; 1.5 MBq, Kidneys) of the same compound?
Answer: 5.12 %ID

Question: And the tissue uptake dose at 4 h ([2]; 1.5 MBq, Liver)?
Answer: 33.5 %ID

Question: And the tissue uptake dose at 4 h ([2]; 1.5 MBq, Lungs)?
Answer: 1.23 %ID

Question: And the tissue uptake dose at 4 h ([2]; 1.5 MBq, Muscle)?
Answer: 3.35 %ID

Question: And the tissue uptake dose at 4 h ([2]; 1.5 MBq, Pancreas)?
Answer: 0.12 %ID

Question: And the tissue uptake dose at 4 h ([2]; 1.5 MBq, Spleen)?
Answer: 1.74 %ID

Question: And the tissue uptake dose at 4 h ([2]; 1.5 MBq, Stomach)?
Answer: 0.18 %ID

Question: What about the tissue uptake dose at 4 h ([2]; 1.5 MBq, Tail) of the same compound?
Answer: 2.77 %ID

Question: What about the tissue uptake dose at 4 h ([2]; 1.5 MBq, Tumour) of the same compound?
Answer: 3.35 %ID

Question: What about the SUV at 4 h ([2]; 1.5 MBq, Blood) of the same compound?
Answer: 0.42 SUV

Question: What about the SUV at 4 h ([2]; 1.5 MBq, Bone) of the same compound?
Answer: 0.57 SUV

Question: And the SUV at 4 h ([2]; 1.5 MBq, Brain)?
Answer: 0.01 SUV

Question: What about the SUV at 4 h ([2]; 1.5 MBq, Heart) of the same compound?
Answer: 0.37 SUV

Question: And the SUV at 4 h ([2]; 1.5 MBq, Kidneys)?
Answer: 3.84 SUV

Question: What about the SUV at 4 h ([2]; 1.5 MBq, Liver) of the same compound?
Answer: 6.18 SUV

Question: What about the SUV at 4 h ([2]; 1.5 MBq, Lungs) of the same compound?
Answer: 2.29 SUV

Question: What about the SUV at 4 h ([2]; 1.5 MBq, Muscle) of the same compound?
Answer: 0.08 SUV

Question: And the SUV at 4 h ([2]; 1.5 MBq, Pancreas)?
Answer: 0.15 SUV

Question: And the SUV at 4 h ([2]; 1.5 MBq, Spleen)?
Answer: 4.83 SUV

Question: What about the SUV at 4 h ([2]; 1.5 MBq, Tumour) of the same compound?
Answer: 2.58 SUV

Question: What about the “SUV, Brain” value ([2]; ip, 5 mg/kg) of the same compound?
Answer: 0.00

Question: What about the Kd [3] of the same compound?
Answer: 0.052 µM
